Bridge positions count the residues as written; N and C are the ends.
Molecular target: TNF receptor (human)
Assay: cell-based or functional assay

B1: AP301 peptide (peptide)
peptide: H-CGQRETPEGAEAKPWYC-OH
modifications: bridge 1-17; also: cyclized via the Cys residues, disulfide given as preferred, bond type of batch not given here
< 0.5 pg/mL: concentration of IL-6 (pg/ml, n = 5) released from fresh human whole blood, AP301 at 1 ng/ml | concentration of IL-6 (pg/ml, n = 5) released from fresh human whole blood, AP301 at 3 ng/ml | concentration of IL-6 (pg/ml, n = 5) released from fresh human whole blood, AP301 at 1 mg/ml as printed | concentration of IL-6 (pg/ml, n = 5) released from fresh human whole blood, AP301 at 10 mg/ml as printed

— patent US20200299331A1
